{
  "source": "patent US8628762B2",
  "about": "“T-helper cell type 17 lineage-specific adjuvants, compositions and methods” (Icahn School of Medicine at Mount Sinai, priority 2008, dated 2014)",
  "system": "Naïve CD4 T-cells",
  "experiment": "In vitro T-cell differentiation in DC conditioned medium, IL-17/IL-10 in supernatants by ELISA",
  "type": "cell-based, C57BL/6J mice",
  "settings": "IL-6 supplemented to DCCM-apoptotic B-cells",
  "description": "Bone marrow (BM)-derived GM-CSF DC cultures were grown in RPMI supplemented with GM-CSF and 5% foetal bovine serum (FBS), plus 100 μg/mL penicillin, 100 μg/mL streptomycin, 2 mM L-glutamine, 10 mM HEPES, 1 nM sodium pyruvate, 1×MEM nonessential amino acids, and 2.5 μM β-mercaptoethanol (all from Sigma-Aldrich, St. Louis, Mo.), as previously dcseribed^1. Semi-adherent cells were harvested on ice on day 5 and re-plated immediately in fresh GM-CSF medium at 1×10^6 cells/well in 24-well tissue culture-treated plates. Soluble or phagocytic stimuli were added right away to the plates in the same medium and the cells were centrifuged for 2 min at 2000 rpm. Supernatants (conditioned medium, CM) were collected after 18 hours. LPS (from E. coli, serotype 055:B5, L-2880) was purchased from Sigma-Aldrich. BMDC were treated with various doses of soluble LPS or 2:1 A20 LPS blasts:DC to titrate the LPS such that levels of IL-6 produced by DC in response to these stimuli was similar. Soluble LPS was used at a final concentration of 1 ng/mL. The A20 B-cell line was obtained from the ATCC (TIB-208). A20 LPS blasts were prepared by culturing A20 cells at 1×10^6 cells/mL, 3 mL/well in 6-well tissue culture plates for four days in RPMI medium supplemented with 10% FBS, with 100 μg/mL penicillin, 100 μg/mL streptomycin, 2 mM L-glutamine, 10 mM HEPES, 1 nM sodium pyruvate, plus 25 μg/mL LPS, as previously described in Blander, J. M. and Medzhitov, R. (2004) Science 304(5673):1014. […] Cells were centrifuged, counted, and apoptosis was induced by UV irradiation at 350 mJ. […]\nNaïve CD4 T cells were isolated first by sorting with MACS® CD4^+ beads (Miltenyi Biotech, Auburn, Calif.) according to manufacturer's instructions and then by fluorescence activated cell sorting (FACS) using a MoFlo™, Vantage, or Influx™ cell sorter for CD25^−CD44^lowCD62L^high cells using allophycocyanin (APC)-conjugated anti-CD25 monoclonal antibody (mAb) (clone PC61.5), FITC-conjugated CD62L mAb (clone MEL-14), and PE-Cy5-conjugated CD44 mAb (clone IM7) (all from eBioscience™, San Diego, Calif.). […]",
  "data": [
    {"molecule": "IL-6: cytokine interleukin-6 (Peprotech), 50 ng/mL (protein, UniProt P08505 25-211, looked up) Interleukin-6: FPTSQVRRGDFTEDTTPNRPVYTTSQVGGLITHVLWEIVEMRKELCNGNSDCMNNDDALAENNLKLPEIQRNDGCYQTGYNQEICLLKISSGLLEYHSYLEYMKNNLKDNKKDKARVLQRDTETLIHIFNQEVKDLHKIVLPTPISNALLTDKLESQKEWLRTKTIQFILKSLEEFLKVTLRSTRQT", "values": [
      {"measurement": "IL-17 production", "result": "restored IL-17 production"}
    ]}
  ]
}
